Results published in doi:10.1101/2020.04.16.045419 (bioRxiv, 2020).

B1: Sb#51 (VHH)
VHH: QVQLVESGGGLVQAGGSLRLSCAASGFPVYQGEMHWYRQAPGKEREWVAAIRSTGVQTWYADSVKGRFTISRDNAKNTVYLQMNSLKPEDTAVYYCRVWVGTHYFGQGTQVTVS
B2: Sb#52 (VHH)
VHH: QVQLVESGGGSVQAGGSLRLSCAASGNIQRIYYLGWFRQAPGKEREGVAALMTYTGHTYYADSVKGRFTVSLDNAKNTVYLQMNSLKPEDTALYYCAAAYVGAENPLPYSMYGYWGQGTQVTVS
B3: Sb#58 (VHH)
VHH: QVQLVESGGGSVQAGGSLRLSCAASGNISTIEYLGWFRQAPGKEREGVAALYTWHGQTYYADSVKGRFTVSLDNAKNTVYLQMNSLKPEDTALYYCAAARWGRHMPLSATEYSYWGQGTQVTVS
B4: Sb#62 (VHH)
VHH: QVQLVESGGGSVQAGGSLRLSCAASGTIADIKYLGWFRQAPGKEREGVAALMTRWGSTYYADSVKGRFTVSLDNAKNTVYLQMNSLKPEDTALYYCAAANYGANYPLYSQQYSYWGQGTQVTVS
B5: Sb#63 (VHH)
VHH: QVQLVESGGGSVQAGGSLRLSCAASGSISSIKYLGWFRQAPGKEREGVAALMTRWGMTYYADSVKGRFTVSLDNAKNTVYLQMNSLKPEDTALYYCAAANYGANEPLQYTHYNYWGQGTQVTVS
B6: Sb#65 (VHH)
VHH: QVQLVESGGGSVQAGGSLRLSCAASGTIAHIKYLGWFRQAPGKEREGVAALMTKWGQTYYADSVKGRFTVSLDNAKNTVYLQMNSLKPEDTALYYCAAASYGANFPLKASDYSYWGQGTQVTVS
B7: Sb#55 (VHH)
VHH: QVQLVESGGGSVQAGGSLRLSCAASGKIWTIKYLGWFRQAPGKEREGVAALMTRWGYTYYADSVKGRFTVSLDNAKNTVYLQMNSLKPEDTALYYCAAANYGSNFPLAEEDYWYWGQGTQVTVS
B8: Sb#67 (VHH)
VHH: QVQLVESGGGSVQAGGSLRLSCAASGSISSITYLGWFRQAPGKEREGVAALVTYSGNTYYADSVKGRFTVSLDNAKNTVYLQMNSLKPEDTALYYCAAATWGHSWPLYNDEYWYWGQGSQVTVS
B9: Sb#66 (VHH)
VHH: QVQLVESGGGSVQAGGSLRLSCAASGSIQAITYLGWFRQAPGKEREGVAALVTWNGQTYYADSVKGRFTVSLDNAKNTVYLQMNSLKPEDTALYYCAAADWGYDWPLWDEWYWYWGQGTQVTVS
B10: Sb#64 (VHH)
VHH: QVQLVESGGGSVQAGGSLRLSCAASGEIESIFYLGWFRQAPGKEREGVAALYTYVGQTYYADSVKGRFTVSLDNAKNTVYLQMNSLKPEDTALYYCAAASYGAAHPLSIMRYYYWGQGTQVTVS
B11: Sb#69 (VHH)
VHH: QVQLVESGGGSVQAGGSLRLSCAASGSISSITYLGWFRQAPGKEREGVAALNTFNGTTYYADSVKGRFTVSLDNAKNTVYLQMNSLKPEDTALYYCAAATWGYSWPLIAEYNWYWGQGTQVTVS
B12: Sb#71 (VHH)
VHH: QVQLVESGGGSVQAGGSLRLSCAASGSISSITYLGWFRQAPGKEREGVAALKTQAGFTYYADSVKGRFTVSLDNAKNTVYLQMNSLKPEDTALYYCAAANWGYSWPLYEADDWYWGQGTQVTVS
B13: Sb#53 (VHH)
VHH: QVQLVESGGGSVQAGGSLRLSCAASGQISHIKYLGWFRQAPGKEREGVAALITRWGQTYYADSVKGRFTVSLDNAKNTVYLQMNSLKPEDTALYYCAAADYGASDPLWFIHYLYWGQGTQVTVS
B14: Sb#59 (VHH)
VHH: QVQLVESGGGSVQAGGSLRLSCAASGNIESIYYLGWFRQAPGKEREGVAALWTGDGETYYADSVKGRFTVSLDNAKNTVYLQMNSLKPEDTALYYCAAAAWGNSAPLTTYRYYYWGQGTQVTVS
B15: Sb#50 (VHH)
VHH: QVQLVESGGGSVQAGGSLRLSCAASGYIDKIVYLGWFRQAPGKEREGVAALYTLSGHTYYADSVKGRFTVSLDNAKNTVYLQMNSLKPEDTALYYCAAATEGHAHALYRLHYYWGQGTQVTVS
B16: Sb#56 (VHH)
VHH: QVQLVESGGGSVQAGGSLRLSCAASGNISQIHYLGWFRQAPGKEREGVAALNTDYGYTYYADSVKGRFTVSLDNAKNTVYLQMNSLKPEDTALYYCAAAYYFGDDIPLWWEAYSYWGQGTQVTVS

These binders were tested against SARS-CoV-2 RBD construct consisting of residues Pro330-Gly526 fused to Venus YFP (RBD-vYFP) (SARS-CoV-2, UniProt P0DTC2).
B1: binds.
B2: binds.
B3: binds.
B4: binds.
B5: binds.
B6: binds.
B7: binds.
B8: binds.
B9: binds.
B10: binds.
B11: binds.
B12: binds.
B13: binds.
B14: binds.
B15: binds.
B16: binds.
